Measurements reported in publication PMC12045711.

How the values were obtained:
[1] = target: Thermoproteota archaeon TasR (TaTasR) (Thermoproteota archaeon isolate LB_CRA_1); assay: cryo-EM structure; TasR tigRNA1 RNP (16 uM) mixed with 60-bp target DNA (8 uM), 29 mM HEPES-KOH pH 7.9, 149 mM KCl, 5 mM MgCl2, 42 C for 1 h; 2D classification of the final particles with a large box and a 300 A circular mask
[2] = target: Thermoproteota archaeon TasR (TaTasR), TIGR-associated protein with an N-terminal RuvC nuclease domain and a Nop domain (Thermoproteota archaeon isolate LB_CRA_1); assay: cryo-EM structure; TasR tigRNA1 RNP (16 uM) mixed with a 60-bp DNA target (8 uM) in 29 mM HEPES-KOH pH 7.9, 149 mM KCl, 5 mM MgCl2; 42°C for 1 hour, then on ice for 3 hours; post-cleavage product complex

Row | Substance | stoichiometry N [1] | stoichiometry N [2]
1 | Thermoproteota archaeon TasR (TaTasR) (enzyme) | 2 | –
2 | Thermoproteota archaeon TasR (TaTasR), TIGR-associated protein with an N-terminal RuvC nuclease domain and a Nop domain (enzyme) | – | 2
